In the DeepSol protein solubility set:

test: soluble on expression in E. coli; label from the status in PepcDB or PDB records

| Sequence | soluble on expression in E. coli |
| --- | --- |
| MSWQNQGMQALIPVINRVQDAFSQLGTSVSFELPQIAVVGGQSAGKSSVLENFVGKDFLPRGSGIVTRRPLILQLIQDRNEYAEFLHKKGHRFVDFDAVRKEIEDETDRVTGQNKGISPHPINLRVFSPNVLNLTLIDLPGLTKVPVGDQPADIEQQIRDMILTFINRETCLILAVTPANSDLATSDALKLAKEVDPQGLRTIGVLTKLDLMDEGTDAREILENKLFTLRRGYVGVVNRGQKDIVGRKDIRAALDAERKFFISHPSYRHMADRLGTSYLQHTLNQQLTNHIRDTLPTLRDSLQKKMFAMEKDVAEYKNYQPNDPGRKTKALLQMVTQFNADIERSIEGSSAKLVSTNELSGGARINRLFHERFPFEIVKMEIDEKEMRKEIQYAIRNIHGIRVGLFTPDMAFEAIAKKQITRLKEPSLKCVDLVVNELANVIRQCADTMARYPRLRDELERIVVSHMREREQIAKQQIGLIVDYELAYMNTNHEDFIGFSNAEAKASQGQSAKKNLGNQVIRKGWLSLSNVSFVRGSKDNWFVLMSDSLSWYKDDEEKEKKYMLPLDGVKLKDIEGGFMSRNHKFALFYPDGKNIYKDYKQLELGCTNLDEIDAWKASFLRAGVYPEKQKAQEDESQQEMEDTSIDPQLERQVETIRNLVDSYMRIITKTIKDLVPKAVMHLIVNQTGEFMKDELLAHLYQCGDTDALMEESQIEAQKREEMLRMYHACKEALRIISEVNMSTLGDQPPPLPMSDYRPHPSGPSPVPRPAPAPPGGRQAPMPPRGGPGAPPPPGMRPPPGAPGGGGGMYPPLIPTRVPTPSNGAPEIPARPQVPKRPF | not soluble |
| MSWWCCIPKSKKGENPYSHGVSGIPPEKNIRLFSYSELRSATENFNRSNKIGRGGFGTVYKGTIRNGRDVAVKVLSAESRQGVREFLTEIDVITNVKHPNLVELIGCCVEGNNRILVYEYLENSSLDRALLGSNSEPANFTWSIRSAICIGIAKGLAYLHEEIASPIVHRDIKASNILLDKLYNPKIGDFGLAKLFPDNITHISTRVAGTTGYLAPEYAWHGQLTKRADIYSFGVLVLEIVSGKSSSRSLLADDKILLEKAWELHEVGKLKELVDSEMGDYPEEEVLRYIKTALFCTQAAAARRPSMPQVVTMLSKPIRINERELTAPGYIHDYNGTVSKATNSSNSRFKHSASDTSDMFSTVVPPTVSEISPR | not soluble |
| MSYLSAIENQENMVVKQEIKIEEEDDDYPLSTIDMAVQALIRNPHHNVDYICGVMIFGGSKNQFNELLNPVVVAQMSKQRKQKKVPVKNPAGEAKRGRGRPRKQSSEEKVQIPKVVVKFEPKKRGRPAGAAKWSQEVAVVLQKQPQRKRGRPLKIAKKIEPVFHQKKESKQNSEEKALIQQEAVKGEPKNRGRPCGAAERSREVVKKLQKQPPRKRGRPLKIAKNMEPEINQKKDTKQVHVCPICTLASKNGTCLCTKCQKWVHLKCTGIRSKQWNSQFQCKNCTC | not soluble |
| MSYQGRARKFLESASIDVGDMVLVEKPDVTYEGMVLDRADDADDRHIVLKLENGYNIGVEISDARIELLEKGSEPRIELPPVEAAEDPELPDVSIISTGGTVASIIDYRTGAVHPAFTADDLLRANPELLDIANIRGRAVFNILSENMKPEYWVETARAVYGEIKDGADGVVVAHGTDTMHYTSAALSFMLRTPVPVVFTGAQRSSDRPSSDASLNIQCSVRAATSEIAEVTVCMHATMDDLSCHLHRGVKVRKMHTSRRDTFRSMNALPLAEVTPDGIKILEENYRKRGSDELELSDRVEERVAFIKSYPGISPDIIKWHLDEGYRGIVIEGTGLGHCPDTLIPVIGEAHDMGVPVAMTSQCLNGRVNMNVYSTGRRLLQAGVIPCDDMLPEVAYVKMCWVLGQTDDPEMAREMMRENIAGEINERTSIAYFRG | soluble |
| MSYQVTTLQARKDMARARLGQIPLPRITHIAFGTGGHLPGDVLTPVKPSETATSLEQEVARFPIASAVLKNDTTVEYKVVIPKGALSGVVLTEQALIDQNGKVVAIKTFGAKKKEPEDEFTFTWEEDF | not soluble |
| MTAARSAPSPAGAPRPGLRERKKTRTREAIRAATYGLIRQQGYEATTVEQIAERAEVSPSTVLRYFPTREDIVLTDEYDPVMAAELAARPAGEPWSDSLRHVLRKALGLGAGEEAELIRLRTRLLAEVPAVRARMLENMSDTGRMLARAIADRTGLDPDGLEVRIVSMSLVGGLMEVSRYWAEHDHEESLAELVDRALDALENGLPALRESDRESDREGDRGGHREDRREGPRKD | soluble |
| MTAESPTIRLERYSERHVEGLTALYNDPAVARQVLQMPYQSVEQRRKRLHDSADDDRLLILVALHQGDVIGSASLEQHPRIRRSHSGSIGMGVAVAWQGKGVGSRLLGELLDIADNWMNLRRVELTVYTDNAPALALYRKFGFETEGEMRDYAVRDGRFVDVYSMARLRRVEGRVGE | soluble |
| MTAGEVLSQSEIDALLAALSAGEMSAEELKKEEEGRRVKTYDFRRALRFSKDQIRSLTRIHENFARLLTTFFSAQLRTYVQISVASADQIPYEEFVRSIPKMTIINVFEVPPLGGHVLLEVNPNIAYAMLDRVMGGRGVGMDKVEHLTEIETRIMSNLFDKAFVHWRDAWESVAEVDPLFVDFEVNPQFLRMIAPNDTVVVISLNTQIGEARGMMNVCIPHVVLEPIMPRLSVHYWMQAQKKERSPEEAKRIEQRIRAAKLPIIAELGTAVITVNEFLQLEAGDVIQLEQSIHEPLVVKIGHIPKFIGQPGKRNKKLAVQILAMIEGDEDDHDE | not soluble |
| MTAKTLIVLIGPTGVGKTELSLRIAEYFKTSIISSDSRQLYAELKIGTAAPTPEQLKRVPHYFVGTLQLTDYYSAAQYETEVMSVLEQLFQQHHVVLLTGGSMMYVDAICKGIDDIPTVDAETRELLLHKYDTEGLDNLCAELKLLDPEYYKIVDLKNPKRVIHALEICYMTGKTYTSFRTQQKKERPFHILKIGLTRDRAELYDRINRRVDQMMDEGLLEEARSVYAHRELNSLNTVGYKEIFKYLDGEWDLDFAIEKIKQNSRIYSRKQMTWFKRDEEIRWFHPEQEKEILSYLQASIKLEHHHHHH | soluble |
| MTALKVGSESWWQSKHGPEWQRLNDEMFEVTFWWRDPQGSEEYSTIKRVWVYITGVTDHHQNSQPQSMQRIAGTDVWQWTTQLNANWRGSYCFIPTERDDIFSAPSPDRLELREGWRKLLPQAIADPLNPQSWKGGLGHAVSALEMPQAPLQPGWDCPQAPEIPAKEIIWKSERLKNSRRVWIFTTGDVTAEERPLAVLLDGEFWAQSMPVWPVLTSLTHRQQLPPAVYVLIDAIDTTHRAHELPCNADFWLAVQQELLPLVKVIAPFSDRADRTVVAGQSFGGLSALYAGLHWPERFGCVLSQSGSYWWPHRGGQQEGVLLEKLKAGEVSAEGLRIVLEAGIREPMIMRANQALYAQLHPIKESIFWRQVDGGHDALCWRGGLMQGLIDLWQPLFHDRS | soluble |
| MTALSQLYPQPLWQWFEQICAIPHPSKHEQSLSQHIQAWAKQKQLDVVEDAVGNVIIRKAATPGMEDRKVVVIQAHIDMVPQKNADKVHDFIKDPIEAYVDGDWVKAKGTTLGADNGIGMASALAILGSDDIKHGPLEVLLTIDEEAGMTGAFGLQAGMLNAEILINTDSEQEGEIYMGCAGGVDAQITLPMVWQASEQSYASFSLHLSGLKGGHSGVNIHLGRGNANKILARFLFENADELALELTQFTGGSLRNAIPREANISFMLPAENIDALKEKVHAFEALMRAELAIADPDLRLVLSNIATPKRVMSENSQNTLIDLLHVCPNGVMRMSDEVTGVTETSLNVGVISTNDEEVGILCLIRSLIDSGRSQVEGMLNALTNLAGADVEFSGAYPGWKPDNTSPVMAIVRETYESIYHKEPVIMVIHAGLECGLFKKPYPEMDMVSIGPTIRYPHGPDEMVNITTVGQYWDLLVAVLERIPVKALEHHHHHH | not soluble |
| MTAPLPLDWTFPYVSQRMPALGENMVCTEQPLANQAAMRMLAAGGNAVDAAIAAAITMTVVGPCMNGIGGDLFAIIWDGRQLHGLNASGRAPQAWTREYFSRHDAMPARGWDAVTVPGAVSGWVALSRKFGKLDFARLFEPALHYARHGFLVTPITARQWADQAEPIMQGPGFRDAFAPNGRTPQPGERFICPGQADTLQDIADTHGESFYRGALAARIAAFARETGGALTKADLAAHQADWVDPIGAQYGELTLHEIGPSGQGIGALMALGMLDGLSGKLGQPDSTDFYHYQIEAMKLAFADINRYVADPASMREVSAEMLLDRAYLATRAGAIDPAEARYPGPGKPHNGGTTYLTAADADGMMVSLIQSNFKGFGSGVVVPGTGIALHNRGWGFNLIEGHPNEVGPGKRPFHTIIPGFLMRDGEPLMSFGVMGGSLQAQGHVQVTVRTAAGQNPQAIVDAPRWRILEDNRTVMVEWNFPDAAVAGLRERGHAVTVAPRFSDEFGGSQAIMRIEGGYLGASDHRKDGQASALLEHHHHHH | not soluble |
| MTAQTTHTVDAVVIGAGFGGIYAVHKLHHELGLTTVGFDKADGPGGTWYWNRYPGALSDTESHLYRFSFDRDLLQESTWKTTYITQPEILEYLEDVVDRFDLRRHFKFGTEVTSALYLDDENLWEVTTDHGEVYRAKYVVNAVGLLSAINFPNLPGLDTFEGETIHTAAWPEGKSLAGRRVGVIGTGSTGQQVITSLAPEVEHLTVFVRTPQYSVPVGNRPVNPEQIAEIKADYDRIWERAKNSAVAFGFEESTLPAMSVSEEERNRIFQEAWDHGGGFRFMFGTFGDIATDEAANEAAASFIRAKVAEIIEDPETARKLMPKGLFAKRPLCDSGYYEVYNRPNVEAVAIKENPIREVTAKGVVTEDGVLHELDVLVFATGFDAVDGNYRRIEIRGRDGLHINDHWDGQPTSYLGVSTANFPNWFMVLGPNGPFTNLPPSIETQVEWISDTIGYAERNGVRAIEPTPEAEAEWTETCTEIANATLFTKGDSWIFGANIPGKKPSVLFYLGGLRNYRAVMAEVAADGYRGFEVKSAEMVTV | soluble |
| MTATETVRVRFCPSPTGTPHVGLVRTALFNWAYARHTGGTFVFRIEDTDAQRDSEESYLALLDALRWLGLDWDEGPEVGGPYGPYRQSQRAEIYRDVLARLLAAGEAYHAFSTPEEVEARHVAAGRNPKLGYDNFDRHLTDAQRAAYLAEGRQPVVRLRMPDDDLAWNDLVRGPVTFAAGSVPDFALTRASGDPLYTLVNPCDDALMKITHVLRGEDLLPSTPRQLALHQALIRIGVAERIPKFAHLPTVLGEGTKKLSKRDPQSNLFAHRDRGFIPEGLLNYLALLGWSIADDHDLFGLDEMVAAFDVADVNSSPARFDQKKADALNAEHIRMLDVGDFTVRLRDHLDTHGHHIALDEAAFAAAAELVQTRIVVLGDAWELLKFFNDDQYVIDPKAAAKELGPDGAAVLDAALAALTSVTDWTAPLIEAALKDALIEGLALKPRKAFSPIRVAATGTTVSPPLFESLELLGRDRSMQRLRAARQLVGHALEHHHHHH | soluble |
| MTATNDKGLQQIATIIEQHQTLPGAMLPILHAIQNDLSFIPSNALPLIAKALNVSKAEVHGVISFYHHFRTEEPGAHVIEICRGESCQAMGSRALEENIKQNLSIDYHQTSKDRQYTLEPVYCLGNCACSPAMRIGDDIHGELDLQKFEQIIASLNTYSLELK | not soluble |
| MTCARCGYVREDLTLFDRVFVCPKCGWIVDRDYNASLNILRRSGSERPSVWSSAFYRWQGGAMKQEALSVRGGLEHHHHHH | not soluble |
| MTDDVDTHIHEKFDLQKRLGKGAYGIVWKAYDKRSRETVALKKIFDAFRNPTDSQRTFREVMFLQEFGKHPNVIKLYNIFRADNDRDIYLAFEFMEADLHNVIKKGSILKDVHKQYIMCQLFRAIRFLHSGNVLHRDLKPSNVLLDADCRVKLADFGLARSLSSLEDYPEGQKMPDLTEYVATRWYRSPEILLAAKRYTKGVDMWSLGCILAEMLIGRALFPGSSTINQIERIMNTIAKPSRADIASIGSHYAASVLEKMPQRPRKPLDLIITQSQTAAIDMVQRLLIFAPQKRLTVEQCLVHPYVVQFHNPSEEPVLNYEVYPPLPDHIQLSIDDYRDRLYEMIDEKKASFKRIQHEKIRPYGEDKSRAPIAQAECSDTDYDTARSLQRTTSMDKNNSSSHDSSSGTLRERAASAESRTSKDSNGEMRNGNGNTPSSIKQRRRSVERARLFANIKPSKILHPHKLISNY | not soluble |
